Data taken from patent US20120322975A1.

What was measured:
[1] = molecular target: dog factor D (in dog serum) (dog); experiment: cell-based or functional assay; details: scale: times less effective than on human factor D
[2] = molecular target: human factor D (purified from human serum) (human) (UniProt P00746); experiment: cell-based or functional assay
UniProt P00746, sequence (P00746 26-253 N180D): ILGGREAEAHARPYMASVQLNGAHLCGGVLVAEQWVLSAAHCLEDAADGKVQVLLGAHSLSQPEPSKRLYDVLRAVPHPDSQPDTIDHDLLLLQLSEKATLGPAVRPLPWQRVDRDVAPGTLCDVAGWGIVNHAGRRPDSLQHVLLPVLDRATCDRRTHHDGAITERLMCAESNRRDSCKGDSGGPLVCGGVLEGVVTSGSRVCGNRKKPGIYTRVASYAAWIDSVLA

MAb 166-32 (antibody)
neutralization of dog factor D in hemolytic assays, compared to human factor D [1]: > 10 | alternative pathway hemolytic activity of plasma from extracorporeal circuits (18 µg/ml antibody in human whole blood) (molar ratio (MAb:factor D)) [2]: 1.5 | inhibition of factor D dependent alternative pathway hemolysis of unsensitized rabbit RBCs (factor D depleted serum with supplemented factor D) [2]: 0.3 µg/mL
